The results in this text go back to US20110275569A1 (CONSIGLIO NAZIONALE DELLE RICERCHE, published 2011).

Where no end group is shown, it is not given here.

Experiment [1] addresses T1, porcine acylamino-acid-releasing enzyme (AARE or APEH) (porcine, UniProt P19205 1-732, limits assumed).
T1 sequence (looked up): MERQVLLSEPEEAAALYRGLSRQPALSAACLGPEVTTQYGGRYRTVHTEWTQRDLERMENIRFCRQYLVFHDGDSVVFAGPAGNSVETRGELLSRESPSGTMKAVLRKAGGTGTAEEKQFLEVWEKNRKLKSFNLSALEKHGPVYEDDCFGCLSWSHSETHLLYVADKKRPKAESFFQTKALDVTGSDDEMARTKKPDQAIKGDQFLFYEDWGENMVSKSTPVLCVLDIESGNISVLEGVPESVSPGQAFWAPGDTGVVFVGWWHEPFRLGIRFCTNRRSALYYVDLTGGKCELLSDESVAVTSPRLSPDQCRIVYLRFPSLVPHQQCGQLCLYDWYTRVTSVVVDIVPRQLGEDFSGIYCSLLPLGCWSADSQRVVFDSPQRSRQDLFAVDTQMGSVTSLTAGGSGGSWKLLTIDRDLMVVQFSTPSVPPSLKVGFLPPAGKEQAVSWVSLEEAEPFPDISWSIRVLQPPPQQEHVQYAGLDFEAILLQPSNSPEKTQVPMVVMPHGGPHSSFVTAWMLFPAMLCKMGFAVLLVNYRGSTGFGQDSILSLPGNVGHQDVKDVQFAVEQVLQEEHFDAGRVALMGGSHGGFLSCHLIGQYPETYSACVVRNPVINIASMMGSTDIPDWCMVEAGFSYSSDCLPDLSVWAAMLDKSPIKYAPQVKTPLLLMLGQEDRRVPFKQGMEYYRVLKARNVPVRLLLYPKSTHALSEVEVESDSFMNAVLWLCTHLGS
The experiment in a line: cell-based or functional assay.

In experiment [2] the target is T1, porcine acylamino-acid-releasing enzyme …. The experiment is described as follows: enzyme inhibition kinetics with N-acetyl-Ala-pNA as substrate.
The target is the same in experiment [3]. The experiment is described as follows: cell-based or functional assay. This is another data set of the same source.
Experiment [4] deals with T2, human acylamino-acid-releasing enzyme (AARE or APEH) (human, UniProt P13798 1-732, limits assumed).
T2 sequence (looked up): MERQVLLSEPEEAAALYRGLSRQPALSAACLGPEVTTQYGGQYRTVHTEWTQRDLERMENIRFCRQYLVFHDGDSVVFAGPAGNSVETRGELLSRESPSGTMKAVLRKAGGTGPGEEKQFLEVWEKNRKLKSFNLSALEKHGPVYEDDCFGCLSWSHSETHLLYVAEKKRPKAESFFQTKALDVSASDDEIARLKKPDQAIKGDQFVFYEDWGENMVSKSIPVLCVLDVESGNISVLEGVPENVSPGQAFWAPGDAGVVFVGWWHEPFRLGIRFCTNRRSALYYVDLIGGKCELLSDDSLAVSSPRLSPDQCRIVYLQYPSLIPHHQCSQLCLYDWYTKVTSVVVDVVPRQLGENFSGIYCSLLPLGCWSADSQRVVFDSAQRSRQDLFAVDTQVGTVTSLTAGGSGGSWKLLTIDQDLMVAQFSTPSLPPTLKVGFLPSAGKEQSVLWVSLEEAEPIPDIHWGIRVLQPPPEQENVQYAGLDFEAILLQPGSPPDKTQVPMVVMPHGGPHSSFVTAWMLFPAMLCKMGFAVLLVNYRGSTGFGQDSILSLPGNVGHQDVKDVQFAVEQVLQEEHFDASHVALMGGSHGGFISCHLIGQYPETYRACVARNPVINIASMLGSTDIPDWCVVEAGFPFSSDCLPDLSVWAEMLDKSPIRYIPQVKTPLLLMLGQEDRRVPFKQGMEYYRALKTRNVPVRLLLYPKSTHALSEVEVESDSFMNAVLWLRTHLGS
The experiment is described as follows: cell-based or functional assay.

Experiment [5] deals with T3, bovine alpha-chymotrypsin (bovine, UniProt P00766 1-13; P00766 16-146; P00766 149-245). The experiment is described as follows: enzyme inhibition kinetics, double reciprocal (Lineweaver-Burk) plot, competitive inhibition. On the procedure: The reciprocals of the rate of the substrate hydrolysis for each inhibitor concentration were plotted against the reciprocals of the substrate concentrations. Ki was determined from the formula as per the competitive type of inhibition.

Experiment [6] deals with T4, porcine elastase (porcine, UniProt P00772 27-266). The experiment in a line: cell-based or functional assay.
T4 sequence (P00772 27-266 limits assumed): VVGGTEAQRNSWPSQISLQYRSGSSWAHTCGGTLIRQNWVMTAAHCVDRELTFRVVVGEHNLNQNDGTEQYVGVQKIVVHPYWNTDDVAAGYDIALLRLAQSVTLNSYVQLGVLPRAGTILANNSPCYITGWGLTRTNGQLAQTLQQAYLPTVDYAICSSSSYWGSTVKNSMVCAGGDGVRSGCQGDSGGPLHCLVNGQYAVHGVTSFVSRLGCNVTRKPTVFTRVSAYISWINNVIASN
For experiment [7], the target named is T3, bovine alpha-chymotrypsin. The experiment is described as follows: cell-based or functional assay.
Experiment [8] deals with T2, human acylamino-acid-releasing enzyme …. The experiment is described as follows: cell-based or functional assay. This is another data set of the same source.
Experiment [9] concerns the target T4, porcine elastase. The experiment in a line: cell-based or functional assay. This is another data set of the same source.
For experiment [10], the target named is T3, bovine alpha-chymotrypsin. The experiment in a line: cell-based or functional assay. The source holds these as a separate data set.
For experiment [11], the target named is T4, porcine elastase. The experiment is described as follows: enzyme inhibition kinetics, double reciprocal plot.
In experiment [12] the target is T1, porcine acylamino-acid-releasing enzyme …. The experiment is described as follows: enzyme inhibition kinetics, Lineweaver-Burk plot, competitive inhibition.

Take YAIDTILAEIKNINAD-NH2 (also called Peptide 3) [Compound 3 or SsCEI 3]: the IC50 values in [1] worked out at 20000 nM. The inhibitory constant (Ki) – broadly, the equilibrium dissociation constant of an inhibitor or competing ligand from its target – in experiment [2] was 20000 nM. The “IC50” value in [3] and in [4] was 25000 nM in each case.

B1: recombinant S. solfataricus inhibitor Sso0767 (SsCEI) (other)
chain: MNSESIYSMRVVSSAFKNEDFIPIKYTCDGQDLSPELEWDLVTNAKSYAIIVEDPDAPGGTFIHWVIYNITTNRLPEGVPRLYKSQYGVQGVNDFGNIGYNGPCPPKTHPPHRYYFYVYAIDTILLEIKNINADKLKSLMEGHGIERGFVMGKYKRK
notes: The filling uses Sso0767, Sso1273 and SsCEI for the same protein; also called Sso1273; not shown: C-terminal His tag from expression vector pET-28
Turning to B1, the results for the Ki (in [5]; with porcine elastase [11]) were 80 nM and 100 nM, respectively. For the same molecule, the IC50 value in the experiment with porcine elastase [6] came to 150 nM. The “IC50 value (50% inhibitory concentration)” value in experiment [7] came to 100 nM. In addition, in experiment [8], the “IC50 value at 37° C.” value amounted to 20 nM. The figures for the “IC50” value (with porcine elastase [9]; in experiment [10]) were 40 nM and 25 nM, respectively.

As for TILAEIKNINAD-NH2 (also called Peptide 4) [Compound 4 or SsCEI 4], the affinity in [12] corresponds to a Ki of 4000 nM. For the same molecule, the “IC50” value in experiment [3] and in experiment [4] was 35000 nM each time.
